Experiment: soluble on expression in E. coli; label from the status in PepcDB or PDB records

Sequence	soluble on expression in E. coli
MGSDKIHHHHHHMYKHSIIPKPVSEYDLRLLRIFISVVEHGGFSSAANALGITRSTISVHMSNLETRMKLKLCLRGRGGFSLTEDGQAVYQAVLDLFATMDDFSLLIDSLGSELSGELIILCADQLDESKQHKMAQVIKKINDASPNLHLVLDGDSISNIEKALLKDKAHIALFPSYQQIEGLQYQPLFSESIYLCCGKQHPFFNQVDTAISEEILGQAAAIHPGINIDLAGKQQLEKLNLSAKSYQFDTRKAMILSGCYIGFMQQSFIQAELNRGEIRIIKPNSHHYQFRLSLVSKKTPREVKKVELLTNVFSQVFEL	not soluble
MGSDKIHHHHHHMKSPEEVTKWVRQRYQRQRWAWLDGGGAWPLQVSLDLPTQKVALADPSAVRTWSSSWADWLAVHPADASRPLPELLTATVAWRNMGEQTLPGALAFSSPECVADYCGDGKVWRRIVSRRATMLARWPALHASGFGSNYTALGEFKDEDFERLLAVLEWLVANPKSGIYLRQLPVPNIDTKWIDLQRRGVVADLFSRIIKPQAALQAVQSFVEGEGAEIDATGQAYSIEKESSNFYDTCGLLRPPVKLRILILCPKLRTQVGGLRDIEATIEDWAQLQLKPRQLLVVENKDTCLAMPDVDGVVAVIKLGNAVALVTRIAWLVRVPVLYWGDIDTYGYSILVQARKKLHDVRSVLMDRSTVETHLDRLVEEGQQTKSIDRSLLTAAELDVYDALLAHDWGTSRRLEQERLEWPSALRTVLSALHQRESKSA	not soluble
MGSDKIHHHHHHMQMFCYQCSQTANGTGCTEYGVCGKSPTVARLQDNLVFAIKGISAYYYHARELGYDDPEIAGFLDEALYSTLTNVNFDAQSFVEYALEAGRMNLKAMQLLKKAHIETYGEPTPVEVETGTKKGKGIIVTGHNLKALEELLKQVEGTNVYVYTHSEMLPAHGYPGLRKYKNLIGNLGKAWYDQRKLFAEYPVAILGTSNCVLIPSESYRDRMFTTSIARLPGVKHIDGYDYTEVIEKAKSLPDLEEKPGSYKLRTGFSTSVVVSLADKIKELVEAGKIKHFLVVGGCDVPFKRNEYYREFVQKLPKETVVITLACGKFRINDLDLGDIDGIPRLIDVGQCNDTIVAIEIAQALAKVFGVEVTELPLTLVLTWMEQKAVAILWTLLALGLKNIYVGPVLPAWVNEDILKVLTAEFGLKTISEP	not soluble
MAHHHHHHMLCHNVASKVSELLLNRMNCPFLQNVQVRNHKIIKPRNIIKLWKINKGDEVKVISGKDKGKIGEVLSCDKFRNMVKVKGCNLRKIYLDNKFVYIEKKIHYSNVQLIDDFLKTNTKVCIRYTDDNQVIRISKKSGIVIPWPSKTNKEDEFDDVEENPLDTPPQEALKKTYDYKADVKFMNILRQTVNKYNRELS	not soluble
MPKIPITLITGFLGSGKTSFLSEYLNQTDHQGVALIINEIGQAALDQRILSVQYCGEKMLYLNAGCVCCNKRLDLVESLKATLNNYEWHGEILRRIIIETTGLANPAPILWTILSDTFLGVHFEIQSVVACVDALNAREHLTNNEAKEQIVFADSVLLTKTDLQNDSAALTKLKERIQALNPSAEIFDKRAIDYESLFSRKNRARNFMPRMPKDSHSQGFETLSINFEGTMEWSAFGIWLSLLLHQYGTQILRIKGIIDIGSGFLVSINGVMHVIYPPKHILKDQNGSNLVFIMRHLEREKILNSLKGFKDFLGIKGFETQLEHHHHHH	soluble
MGHHHHHHSHMANSAGSMANSAGSLPTTTIGSFPQSREVRKYRADWKNKRITDEAYETFLKNEIARWIKIQEDIGLDVLVHGEFERNDMVEFFGEKLQGFLVTKFGWVQSYGSRAVKPPIIYGDVKWTAPLTVDETVYAQSLTDKPVKGMLTGPVTILNWSFERVDLPRKVVQDQIALAINEEVLALEAAGIKVIQVDEPALREGLPLRSEYHEQYLKDAVLSFKLATSSVRDETQIHTHMCYSQFGQIIHAIHDLDADVISIETSRSHGDLIKDFEDINYDLGIGLGVYDIHSPRIPTKEEITTAINRSLQQIDRSLFWVNPDCGLKTRKEEEVKDALTVLVNAVKA	not soluble
MGSDKIHHHHHHMAAGCTTPMERRQANGNDEYVNAQTTAPLKVPEGLKSPNYSREYDIPTLGAKANRELVGKNLDIRPPLQVLPMAEGTRVEEGSDNVKVIVESFDNSLDLKQEIFGLLKDHLQSRNIEIVKEDFASGTLETGWIETQEVLESSLWGSDKVFNLKQRYQYQVEVRPHGRTGAVIINLVDHQESYDGDDLKTALSADDKRRYAIDMLNNSIAYMAVKREQAIKAKRVRESLGIGVELVDGAEEGDAFYLAQGDSIRYGLT	not soluble
MGSDKIHHHHHHMQRKKIGVALGSGAAKGWAHIGVLNALTEMGIEVDVVAGCSIGALVGAAYATNNLSSMDRWVRSFGYWDVIRLMDLSWQRGSLLRGDRVFNSVKHLLHTTQIEDCDIKYGVVTTNLSTGRELWLTEGDLHQAMRASCSMPGLLSPVRFNDYWLVDGAVVNPVPVSLARAMGADIVIAVDLQHDASLNHQDLLSIKPTASDIDAENVPQDWRSRIRERLLRGRRHPAESSPTAMEIMSTSIQILENRLKMTRMAGDPPDVLLQPHCPQIATLDFHRAQEAIDAGYKAVEKMRDELLPLAKEA	not soluble
MKSSVEKLSETRVKLNVEVPFEELKPEIDQAYKALAQQITIPGFRRGKAPRQLIDARIGRGAVLEQVINDMLPTRYQQVVEENELVVLGQPHIDITKLEDNEVVEFTAEVDVRPEITVPDFSAFAVEVPALKSNDEAIDAQIDKLRERFGELKDTKRKLKTDDFAIIDIEAAIDGEKLEEATTEGMSYQVGAGDLIDGLDTALRGLKAGESAEFTTTLKAGEHEGKEAAVTVTVQQTKERKLPELDEEFVQTASEFDTVEELRESIAEQVAEQAKAEQATAIRDEVLKAALAEATFELPEGVVEDQIHAQLHQLLNQVGGDEAALNAALEAQGTSREQFDADNRKNSEEAVRTQLFLDALAEQEQPEVSQQELTDHILFTAQSYGMDPNQFITQLQQSGQIGNLFSDVRRGKALAAAICRVSVKDDEGKAVDPSEYFGEEEESAEESE	soluble
MSLKLVLHSAKRASAPYRVRIGLNLKGLAFELRPVDLVANAHQGEAYRALNAQALVPTLEVDGRPLTQSLAILEWLDETYPAHPLLPTDAFDRATVRAMAEIIACDIHPLNNLRILRQLTALEIDEPARNAWVARWIQDGFSALEPMIARHGQGYAFGDAPGLVDCLLVPQVFNANRFNVDLSPFPALEAAAAHARAHPAIAAAHPDHHPEEGHHHHHH	soluble
MAIVPRPITKFKRACLRIKLARCQKTPLSNFARSDLRSFSVFRFNLSVLQLVSSKIVKLDIMKQAAITSALTQNKMDPINGNLTSTAPVEPLSLTAAEQVGGAFCHQFYITVSENRKAITKFYGHESKFYLDDQVVTGSQEIVKLYNHLPETTHFKIQSIKGYPTPHKQGVIINVIGTVNLRPFLQSFLLGQQGQKKYYVESDAFQYIDKFFVANTEKEKTTSSTGHNGHASGANGKDSKSSKTEQPKEQSKPAPPKQQTPKKAEDRIVKQDTPKSVEKEVAKTPQKPQLAQQPPQQRAPVPEPVQEQPKVQKTWANLVGGGGKSQPPQQQSYGQGQQIHQQTQMHHMQPSMHQQQQGSHAPLYQQQRQSHPANELRQAQESSDANLNERKIYLGGITREIVPSNTAQAESEIKQVFYKYGEIEEVRMPRKVLDSPNDTSKHAFAFITMRNKAGVKAIFEAATKDEQGVWKLPLKLDAFGFDGHAQISEQRDQPQGGGFRGGRGGFQPRGGQFFRRGGSGGAPRGGMRSGFQNAGQN	not soluble
MGSDKIHHHHHHMLTDHRCTKYTDCSSCSFYQRDIFKYRLYPKGYVIPQTRCMQNMVFFLVKGEIWLNSEEHPDTTFRGGQFVLQPIGSKVECKVLDYTECIIYLFERPQNICDNRFNKGISIVENERQQPIVMTMVPPIQLFIEGMKLYLNDDLRCSGLMQAKRSEMVYLLNCYYPIKELAAFYAPIYRYSHSFQYFVMQNYQKAKDVETFAQLGGYSVPTFRRIFKDTFGEPAYQWMLKRKCQDIHNDLIMTELSISEICYKYGFESLSNFSHFCRANFGQSPRSVRSLKDENT	not soluble
MSLESPQTQSEISIHQLVVGKPANDGNIPAQCELLRCSLQEGMDILLWRGHFARPETLQLHDDLGRINFSCILEGTSRFAIQGLRRHTDWELARNRHYITHTPDCRGSASYCGRFESITLSFSPETLALWVPDISAVIKNKIDSHCCCQQQRCNAETHLTAQALRHALMRMHGGFSHEQKPSTLWLQGQSLVMLSLVLDEHREDASCLSCHFNPMERQKLLRAKDLLLADLTQAPGVAELARESGLSVLKIKRGFRVLFNNSVYGLFQAERMQEARRRLANGNTSVMTVAADLGYANASHFSAAFQKQFGVTPSTFKRGEGHHHHHH	not soluble
MSLEGHIVITGATGVIGSEVARRLIKSGREVVVFARSPQSAAAKVPGAADYVRWDSDMAPDGWSSSIDGAYAVIHLAGRPLLETRWTEEHKVACYDSRIKGTRALVAAMASASVKPKVFVSSSAIGYYGSFDRCEETDPLTEKAAPGKDFLAKICFDWEKEARPAETLGTRVVLLRTGIVLSTKGGMLQKMMIPFSYFVGGPVGSGDQCLSWIHLDDEVSIILQALDNADWSGPVNAVAPEPVSMKAFADSLGLVMHRPSLFPVPKLAVQILLGEGADYAVKGQKVSPEFLKERDFHFAWPSLNEALADLVSRGEGHHHHHH	soluble
MSLQRLLQHSSNGNLADFCAGPAYSSYSTLTGSLTMDDNRRIQMLADTVATLPRGRKQLALTRSSSLSDFSWSQRKLVTVEKQDNETFGFEIQSYRPQNQNACSSEMFTLICKIQEDSPAHCAGLQAGDVLANINGVSTEGFTYKQVVDLIRSSGNLLTIETLNGTMILKRTELEAKLQVLKQTLKQKWVEYRSLQLQEHRLLHGDAANCPSLENMDLDELSLFGPLPGPGPALVDRNRLSSESSCKSWLSSMTMDSEDGYQTCVSEDSSRGAFSRQTSTDDECFIPKEGDDFLRRSSSRRNRSISNTSSGSMSPLWEGNLSSMFGTLPRKSRKGSVRKQLLKFIPGLHRAVEEEESRF	soluble
SFQGQRGWFCGSVSQDLRQFWVAEGGTISDPRAADFLFSCDASHPDTLRIYQSLDYIEDNATVFHAYYLSAVANAKIKNSVALGHFILPPACLQKEIRRKIGSFIWEQDQHFLIEKHDEVTPNEIKTLRENSELATEHKKELSKSPEKHFIRTPVVEKQMYFPLQNYPVNNMVTGYISIDAMKKFLGELHDFIPGTSGYLAYHVQNEINMSAIKNKLKRK	soluble
MSLKSKGIKNLLIDLGGVLINLDRERCIENFKKIGFQNIEEKFCTHQLDGIFLQQEKGLITPAEFRDGIREMMGKMVSDKQIDAAWNSFLVDIPTYKLDLLLKLREKYVVYLLSNTNDIHWKWVCKNAFPYRTFKVEDYFEKTYLSYEMKMAKPEPEIFKAVTEDAGIDPKETFFIDDSEINCKVAQELGISTYTPKAGEDWSHLFRKEGHHHHHH	soluble
STSPEIASLSWGQMKVKGSNTTYKDCKVWPGGSRTWDWRETGTEHSPGVQPADVKEVVEKGVQTLVIGRGMSEALKVPSSTVEYLKKHGIDVRVLQTEQAVKEYNALVAQGVRVGGVFHSTC	soluble
MSLNALYNSLKQRLESGEWLAGQRMPSIRKLASTSEASYHDAVTAYARLVSEGLLSASPGRGYFVNSGASQAVSPREPECMSADPLFRLLQAGPQYTKLGGGWLPPAWRDTELLAKAIRRTARLEQSSLAEYGDISGYLPMRKQLCVHMKRLTRIDIRPSQVLSTLGATQGLDLVARLLIKAGDHVFVDEPGNGNLIRLIQLAGGHVVGVRRTQDGPDIAEMESYLAKHTVKAFFCNSTFHNPTGSNISPHNAFKVLRLAVEHEFFVVEDDVYGDFSPTVRQTFAELDNLDRVIYIGSFSKCLSASLRVGYIACSQELIEPLTRLKLLTCVAVPAFCERFVNTILADGTYARHMQDVQQRLISQQVQTQRSLLARGWKFDIAPQGGMFIWAYHPDITDLQPFMTKLEQHRILLMPGSAFSVTRDYQRFARINCTHFSEAVEAHFSV	not soluble
